In patent publication US20200407452A1 (published 2020):
Residue numbers refer to the chain shown, from its start.

B1: 71G3 chimeric llama-human IgG1 mAb (antibody, V domains shown)
VH: QVQLVESGGGLVQPGGSLRVSCAASGFTFSTYYMSWVRQAPGKGLEWVSDIRTDGGTYYADSVKGRFTMSRDNAKNTLYLQMNSLKPEDTALYYCARTRIFPSGYDYWGQGTQVTVSS
VL: QAVVTQEPSLSVSPGGTVTLTCGLSSGSVTTSNYPGWFQQTPGQAPRTLIYNTNSRHSGVPSRFSGSISGNKAALTIMGAQPEDEADYYCSLYPGSTTVFGGGTHLTVL
notes: human IgG1 CH1-CH2-CH3 and human CL lambda; also called 71G3 Human IgG1/lambda
B2: 71C3 chimeric llama-human IgG1 mAb (antibody, V domains shown)
VH: QLQLVESGGGLVQPGGSLRLSCAASGFTFSSHAMSWVRQAPGKGLEWVSAINSGGGSTSYADSVKGRFTISRDNAKNTLYLQMNSLKPEDTAVYYCAKELRFDLARYTDYEAWDYWGQGTQVTVSS
VL: SYELTQPSALSVTLGQTAKITCQGGSLGSSYAHWYQQKPGQAPVLVIYDDDSRPSGIPERFSGSSSGGTATLTISGAQAEDEGDYYCQSADSSGNAAVFGGGTHLTVL
notes: human IgG1 CH1-CH2-CH3 and human CL lambda
B3: 71D6 llama-mouse chimeric mAb (mouse IgG1/lambda) (antibody, V domains shown)
VH: B2 VH with Q1E, H32Y, A33G, G54Y, L100V, F102A, A105S, T108N, A112S, W113Y
VL: QPVLNQPSALSVTLGQTAKITCQGGSLGARYAHWYQQKPGQAPVLVIYDDDSRPSGIPERFSGSSSGGTATLTISGAQAEDEGDYYCQSADSSGSVFGGGTHLTVLG
notes: also called 71D6 Mouse IgG1/lambda
B4: 71A3 chimeric llama-human IgG1 mAb (antibody, V domains shown)
VH: EVQLVESGGGLVQPGGSLRLSCAASGFSFKDYDITWVRQAPGKGLEWVSTITSRSGSTSYVDSVKGRFTISGDNAKNTLYLQMNSLKPEDTAVYYCAKVYATTWDVGPLGYGMDYWGKGTLVTVSS
VL: B2 VL
notes: as for B2
B5: 71D4 chimeric llama-human IgG1 mAb (antibody, V domains shown)
VH: B2 VH with Q1E, S31G, H32Y, A33G, A50D, E99D, L100M, F102L, D103Y, T108N
VL: B2 VL with Y2S, E3A
notes: as for B2
B6: 71G2 chimeric llama-human IgG1 mAb (antibody, V domains shown)
VH: EVQLQESGGGLVQPGGSLRLSCAASGFTFSIYDMSWVRQAPGKGLEWVSTINSDGSSTSYVDSVKGRFTISRDNAKNTLYLQMNSLKPEDTAVYYCAKVYGSTWDVGPMGYGMDYWGKGTLVTVSS
VL: SSALTQPSALSVSLGQTARITCQGGSLGSSYAHWYQQKPGQAPVLVIYGDDSRPSGIPERFSGSSSGGTATLTISGAQAEDEDDYYCQSTDSSGNTVFGGGTRLTVL
notes: human IgG1 CH1-CH2-CH3 and human CL lambda; also called 71G2 Human IgG1/lambda
B7: 76H10 chimeric llama-human IgG1 mAb (antibody, V domains shown)
VH: QLQLVESGGGLVQPGGSLRVSCTASGFTFNTYYMTWVRQAPGKGLEWVSDINSGGGTYYADSVKGRFTISRDNAKNTLYLQMNSLKPEDTALYYCVRVRIWPVGYDYWGQGTQVTVSS
VL: QAVVTQEPSLSVSPGGTVTLTCGLSSGSVTTSNYPGWFQQTPGQAPRTLIYNTNNRHSGVPSRFSGSISGNKAALTITGAQPEDEADYYCSLYTGSYTTVFGGGTHLTVL
notes: as for B2

Tests used:
[1] = molecular target: T1, mouse MET ECD (mouse, UniProt P16056 25-931); assay: ELISA, MET ECD coated, mAb 0-40 nM, mouse IgG format
T1 construct: range 1-931; recombinant; range as printed includes the signal peptide; also called mMET; mMET ECD

[2] = molecular target: T2, human MET ECD (human, UniProt P08581 25-932); assay: as above
T2 construct: range 1-932; recombinant; range as printed includes the signal peptide; also called hMET; hMET ECD

[3] = molecular target: T1, mouse MET ECD; assay: ELISA, MET ECD coated, mAb 0-20 nM
Experimental: (§1) Production (by transient transfection of mammalian cells) and purification (by protein A affinity chromatography) of the resulting chimeric llama-human IgG1 molecules was outsourced to U-protein Express. Binding of chimeric mAbs to MET was determined by ELISA using hMET or mMET ECD in solid phase and increasing concentrations of antibodies (0-20 nM) in solution. […] Binding capacity (EMAX) varied from antibody to antibody, possibly due to partial epitope exposure in the immobilized antigen, but was similar in the human and mouse setting.

[4] = molecular target: T2, human MET ECD; assay: ELISA, MET ECD coated, mAb 0-20 nM
Experimental: as §1

[5] = molecular target: T3, native mouse MET on living cells (mouse, UniProt P16056 25-1379); assay: cell-based or functional assay
[6] = molecular target: T4, native human MET on living cells (human, UniProt P08581 25-1390); assay: cell-based or functional assay
[7] = molecular target: T3, native mouse MET on living cells; assay: FACS, MLP29 cells
[8] = molecular target: T4, native human MET on living cells; assay: FACS, A549 cells
[9] = molecular target: T3, native mouse MET on living cells; assay: cell-based or functional assay; remark: listed apart in the source
[10] = molecular target: T4, native human MET on living cells; assay: cell-based or functional assay; remark: listed apart in the source
[11] = molecular target: T3, native mouse MET on living cells; assay: cell-based or functional assay; remark: listed apart in the source
[12] = molecular target: T4, native human MET on living cells; assay: cell-based or functional assay; remark: listed apart in the source
[13] = molecular target: human MET ECD mutant J (mutations 6, 7) (human) (UniProt P08581); assay: ELISA, WT or mutant hMET ECD coated
[14] = molecular target: human MET ECD mutant I (mutations 6, 7, 8) (human) (UniProt P08581); assay: ELISA, WT or mutant hMET ECD coated
[15] = molecular target: T2, human MET ECD; assay: ELISA, WT or mutant hMET ECD coated
Experimental: Using human MET as a template, we mutagenized each of these residues in different permutations, generating a series of MET mutants that are fully human except for specific residues, which are llama. Next, we tested the affinity of selected SEMA-binding mAbs (71D6, 71C3, 71D4, 71A3, 71G2) and PSI-binding mAbs (76H10 and 71G3) for these MET mutants by ELISA. To this end, the various MET proteins were immobilized in solid phase (100 ng/well in a 96-well plate) and then exposed to increasing concentrations of antibodies (0-50 nM) solution. […] Wild-type human MET was used as positive control.
TABLE 24 The epitopes of MET responsible for agonistic antibody binding represent residues conserved among H. sapiens, M. musculus, R. norvegicus, M. fascicularis but not among the same species and L. glama. The relevance of residues conserved among human, mouse, rat, cynomolgus monkey but not llama MET for binding to agonistic mAbs was tested by ELISA. Wild-type (WT) or mutant (MT) human MET ECD was immobilized in solid phase and exposed to increasing concentrations of mAbs in solution. […] All binding values were normalized to the WT protein and are expressed as % binding (EMAX) compared to WT MET.

[16] = molecular target: human MET ECD mutant A (mutations 1, 2, 3) (human) (UniProt P08581); assay: ELISA, WT or mutant hMET ECD coated
[17] = molecular target: human MET ECD mutant H (mutations 2, 4) (human) (UniProt P08581); assay: ELISA, WT or mutant hMET ECD coated
[18] = molecular target: human MET ECD mutant D (mutations 1, 2) (human) (UniProt P08581); assay: ELISA, WT or mutant hMET ECD coated
[19] = molecular target: human MET ECD mutant E (mutations 2, 3, 4) (human) (UniProt P08581); assay: ELISA, WT or mutant hMET ECD coated
[20] = molecular target: T1, mouse MET ECD; assay: ELISA, mMET ECD coated

| Molecule | EMAX [3] | EMAX [4] | MLP29 br. m. (branch n.) [5] | LOC br. m. (branch n.) [6] | phospho-MET ELISA EMAX, MLP29 cells [9] | phospho-MET ELISA EMAX, A549 cells [10] | protection from staurosporine-induced apoptosis EC50, MLP29 cells [11] | protection from staurosporine-induced apoptosis EMAX, MLP29 cells [11] | protection from staurosporine-induced apoptosis EC50, MCF10A cells [12] | protection from staurosporine-induced apoptosis EMAX, MCF10A cells [12] | % binding (EMAX) vs WT MET ECD [15] | % binding (EMAX) vs WT MET ECD [16] | % binding (EMAX) vs WT MET ECD [17] | % binding (EMAX) vs WT MET ECD [18] | % binding (EMAX) vs WT MET ECD [19] | other results |
| --- | --- | --- | --- | --- | --- | --- | --- | --- | --- | --- | --- | --- | --- | --- | --- | --- |
| 5D5 mouse anti-human MET antibody | – | – | – | – | – | – | – | – | – | – | – | – | – | – | – | EC50 [1]: > 40 nM; EC50 [2]: 0.197 nM; EMAX [2]: 3.16 OD450 |
| B1 | 2.98 OD450 AU | 2.83 OD450 AU | 29.3 branches per spheroid | 22.3 branches per spheroid | 97.8 % HGF activity | 95.7 % HGF activity | 4.85 nM | 62.3% | 5.04 nM | 65.2% | – | – | – | – | – | MLP29 MET act. (EMAX, % HGF) [5]: 96.8 % HGF; A549 MET act. (EMAX, % HGF) [6]: 94.3 % HGF; EMAX [7]: 112 % CTR; EMAX [8]: 110 % CTR; % binding (EMAX) vs WT MET ECD [13]: 91.2%; % binding (EMAX) vs WT MET ECD [14]: 100% |
| B2 | 2.24 OD450 AU | 2.46 OD450 AU | – | – | 98.8 % HGF activity | 86.2 % HGF activity | 31 nM | 51.3% | 31.9 nM | 50.2% | 100% | 99.8% | 61.6% | 102% | 59.6% | – |
| B3 | – | – | 39.5 branches per spheroid | 30.4 branches per spheroid | – | – | – | – | – | – | – | – | – | – | – | EC50 [20]: 0.036 nM |
| B4 | 2.73 OD450 AU | 2.4 OD450 AU | – | – | 96 % HGF activity | 86.6 % HGF activity | < 0.5 nM | 70.5% | < 0.5 nM | 71.7% | 100% | 117% | 76.7% | 128% | 65.4% | – |
| B5 | 1.17 OD450 AU | 1.43 OD450 AU | – | – | 95.3 % HGF activity | 84.6 % HGF activity | 29.8 nM | 52.1% | 30.2 nM | 51.7% | 100% | 114% | 58.7% | 120% | 57.2% | – |
| B6 | 3.17 OD450 AU | 3.09 OD450 AU | 45 branches per spheroid | 31.7 branches per spheroid | 110 % HGF activity | 101 % HGF activity | 1.99 nM | 58.3% | 1.06 nM | 64.8% | 100% | 92.1% | 40.2% | 114% | 41.4% | MLP29 MET act. (EMAX, % HGF) [5]: 110 % HGF; A549 MET act. (EMAX, % HGF) [6]: 106 % HGF; EMAX [7]: 131 % CTR; EMAX [8]: 137 % CTR |
| B7 | 2.66 OD450 AU | 2.67 OD450 AU | – | – | 64.1 % HGF activity | 61.2 % HGF activity | > 32 nM | 27.2% | > 32 nM | 22.8% | – | – | – | – | – | % binding (EMAX) vs WT MET ECD [13]: 89%; % binding (EMAX) vs WT MET ECD [14]: 100% |
